Source: patent US20130123471A1

What was measured:
[1] = biological target: anti-CEA humanized chimeric antibody; assay: direct ELISA: chimeric antibody (100 ng/ml) on coated CEA, detected with goat-anti-mouse IgG Fc-HRP (background level)
[2] = biological target: human CEA antigen (human) (UniProt P06731); assay: competitive inhibition ELISA on coated CEA, 80 ng human IgG1 against 2.5 ng parent mouse antibody
[3] = biological target: human CEA antigen (human) (UniProt P06731); assay: direct ELISA on coated CEA, 100 ng/ml, goat-anti-human IgG Fc-HRP secondary (background level)
[4] = biological target: human CEA antigen (human) (UniProt P06731); assay: direct ELISA on coated CEA, 100 ng/ml, goat-anti-mouse IgG Fc-HRP secondary (background level; this secondary does not detect human Ig)
[5] = biological target: human CEA antigen (human) (UniProt P06731); assay: ELISA, CEA coating, sample 100 ng/ml, goat-anti-human IgG Fc-HRP (background level)

Sequence of UniProt P06731 (P06731 35-685 limits assumed): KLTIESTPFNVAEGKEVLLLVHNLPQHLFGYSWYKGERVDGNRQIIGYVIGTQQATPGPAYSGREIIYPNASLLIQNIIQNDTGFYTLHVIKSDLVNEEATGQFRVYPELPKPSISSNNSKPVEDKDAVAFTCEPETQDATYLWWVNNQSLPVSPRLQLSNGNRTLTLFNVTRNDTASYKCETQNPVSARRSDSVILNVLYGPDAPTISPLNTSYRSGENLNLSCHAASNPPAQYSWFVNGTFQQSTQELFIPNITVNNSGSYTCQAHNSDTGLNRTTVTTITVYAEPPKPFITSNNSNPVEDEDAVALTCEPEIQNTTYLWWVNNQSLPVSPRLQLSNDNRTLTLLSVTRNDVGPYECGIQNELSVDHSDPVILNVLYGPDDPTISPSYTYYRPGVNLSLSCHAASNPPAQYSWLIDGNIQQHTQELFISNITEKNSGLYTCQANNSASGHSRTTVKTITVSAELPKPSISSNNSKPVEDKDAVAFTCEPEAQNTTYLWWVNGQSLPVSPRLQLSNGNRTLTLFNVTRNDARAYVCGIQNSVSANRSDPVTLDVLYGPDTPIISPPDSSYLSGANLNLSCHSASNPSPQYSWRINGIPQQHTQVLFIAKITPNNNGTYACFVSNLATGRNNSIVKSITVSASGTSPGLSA
Sequence of anti-CEA humanized chimeric antibody (VH, as listed by the source, chain 1 of 2): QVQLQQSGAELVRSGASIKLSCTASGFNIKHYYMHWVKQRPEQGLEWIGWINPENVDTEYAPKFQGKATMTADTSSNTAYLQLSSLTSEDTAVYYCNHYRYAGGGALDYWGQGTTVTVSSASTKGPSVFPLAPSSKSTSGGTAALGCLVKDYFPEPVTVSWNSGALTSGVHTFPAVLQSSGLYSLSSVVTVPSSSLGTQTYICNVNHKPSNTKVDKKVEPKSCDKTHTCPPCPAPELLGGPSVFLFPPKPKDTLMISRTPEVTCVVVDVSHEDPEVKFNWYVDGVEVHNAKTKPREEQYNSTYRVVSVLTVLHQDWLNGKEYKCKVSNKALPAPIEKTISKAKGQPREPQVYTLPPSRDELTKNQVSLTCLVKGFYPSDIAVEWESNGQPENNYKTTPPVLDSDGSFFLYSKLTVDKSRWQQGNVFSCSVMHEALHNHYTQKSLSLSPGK
Sequence of anti-CEA humanized chimeric antibody (VL, as listed by the source, chain 2 of 2): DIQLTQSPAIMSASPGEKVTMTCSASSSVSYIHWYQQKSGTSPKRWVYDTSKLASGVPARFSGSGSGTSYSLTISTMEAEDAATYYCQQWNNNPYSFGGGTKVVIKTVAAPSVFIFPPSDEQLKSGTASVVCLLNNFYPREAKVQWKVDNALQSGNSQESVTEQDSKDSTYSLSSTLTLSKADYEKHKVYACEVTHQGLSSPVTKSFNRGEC

Row | Substance | OD490 [1] | Inhibition rate (%) [2] | OD490 [3] | OD490 [4] | OD490 [5]
1 | goat-anti-mouse IgG Fc fragment-HRP (antibody) | 0.072 OD490 | – | – | – | –
2 | irrelevant antibody human IgG1 | – | -12.8% | 0.079 OD490 | 0.077 OD490 | 0.072 OD490
